Measured values published in IntAct's records for PubMed 11356191.

Biological target: ptn13_human PTPN13 (UniProt Q12923)
Sequence (Q12923 whole entry): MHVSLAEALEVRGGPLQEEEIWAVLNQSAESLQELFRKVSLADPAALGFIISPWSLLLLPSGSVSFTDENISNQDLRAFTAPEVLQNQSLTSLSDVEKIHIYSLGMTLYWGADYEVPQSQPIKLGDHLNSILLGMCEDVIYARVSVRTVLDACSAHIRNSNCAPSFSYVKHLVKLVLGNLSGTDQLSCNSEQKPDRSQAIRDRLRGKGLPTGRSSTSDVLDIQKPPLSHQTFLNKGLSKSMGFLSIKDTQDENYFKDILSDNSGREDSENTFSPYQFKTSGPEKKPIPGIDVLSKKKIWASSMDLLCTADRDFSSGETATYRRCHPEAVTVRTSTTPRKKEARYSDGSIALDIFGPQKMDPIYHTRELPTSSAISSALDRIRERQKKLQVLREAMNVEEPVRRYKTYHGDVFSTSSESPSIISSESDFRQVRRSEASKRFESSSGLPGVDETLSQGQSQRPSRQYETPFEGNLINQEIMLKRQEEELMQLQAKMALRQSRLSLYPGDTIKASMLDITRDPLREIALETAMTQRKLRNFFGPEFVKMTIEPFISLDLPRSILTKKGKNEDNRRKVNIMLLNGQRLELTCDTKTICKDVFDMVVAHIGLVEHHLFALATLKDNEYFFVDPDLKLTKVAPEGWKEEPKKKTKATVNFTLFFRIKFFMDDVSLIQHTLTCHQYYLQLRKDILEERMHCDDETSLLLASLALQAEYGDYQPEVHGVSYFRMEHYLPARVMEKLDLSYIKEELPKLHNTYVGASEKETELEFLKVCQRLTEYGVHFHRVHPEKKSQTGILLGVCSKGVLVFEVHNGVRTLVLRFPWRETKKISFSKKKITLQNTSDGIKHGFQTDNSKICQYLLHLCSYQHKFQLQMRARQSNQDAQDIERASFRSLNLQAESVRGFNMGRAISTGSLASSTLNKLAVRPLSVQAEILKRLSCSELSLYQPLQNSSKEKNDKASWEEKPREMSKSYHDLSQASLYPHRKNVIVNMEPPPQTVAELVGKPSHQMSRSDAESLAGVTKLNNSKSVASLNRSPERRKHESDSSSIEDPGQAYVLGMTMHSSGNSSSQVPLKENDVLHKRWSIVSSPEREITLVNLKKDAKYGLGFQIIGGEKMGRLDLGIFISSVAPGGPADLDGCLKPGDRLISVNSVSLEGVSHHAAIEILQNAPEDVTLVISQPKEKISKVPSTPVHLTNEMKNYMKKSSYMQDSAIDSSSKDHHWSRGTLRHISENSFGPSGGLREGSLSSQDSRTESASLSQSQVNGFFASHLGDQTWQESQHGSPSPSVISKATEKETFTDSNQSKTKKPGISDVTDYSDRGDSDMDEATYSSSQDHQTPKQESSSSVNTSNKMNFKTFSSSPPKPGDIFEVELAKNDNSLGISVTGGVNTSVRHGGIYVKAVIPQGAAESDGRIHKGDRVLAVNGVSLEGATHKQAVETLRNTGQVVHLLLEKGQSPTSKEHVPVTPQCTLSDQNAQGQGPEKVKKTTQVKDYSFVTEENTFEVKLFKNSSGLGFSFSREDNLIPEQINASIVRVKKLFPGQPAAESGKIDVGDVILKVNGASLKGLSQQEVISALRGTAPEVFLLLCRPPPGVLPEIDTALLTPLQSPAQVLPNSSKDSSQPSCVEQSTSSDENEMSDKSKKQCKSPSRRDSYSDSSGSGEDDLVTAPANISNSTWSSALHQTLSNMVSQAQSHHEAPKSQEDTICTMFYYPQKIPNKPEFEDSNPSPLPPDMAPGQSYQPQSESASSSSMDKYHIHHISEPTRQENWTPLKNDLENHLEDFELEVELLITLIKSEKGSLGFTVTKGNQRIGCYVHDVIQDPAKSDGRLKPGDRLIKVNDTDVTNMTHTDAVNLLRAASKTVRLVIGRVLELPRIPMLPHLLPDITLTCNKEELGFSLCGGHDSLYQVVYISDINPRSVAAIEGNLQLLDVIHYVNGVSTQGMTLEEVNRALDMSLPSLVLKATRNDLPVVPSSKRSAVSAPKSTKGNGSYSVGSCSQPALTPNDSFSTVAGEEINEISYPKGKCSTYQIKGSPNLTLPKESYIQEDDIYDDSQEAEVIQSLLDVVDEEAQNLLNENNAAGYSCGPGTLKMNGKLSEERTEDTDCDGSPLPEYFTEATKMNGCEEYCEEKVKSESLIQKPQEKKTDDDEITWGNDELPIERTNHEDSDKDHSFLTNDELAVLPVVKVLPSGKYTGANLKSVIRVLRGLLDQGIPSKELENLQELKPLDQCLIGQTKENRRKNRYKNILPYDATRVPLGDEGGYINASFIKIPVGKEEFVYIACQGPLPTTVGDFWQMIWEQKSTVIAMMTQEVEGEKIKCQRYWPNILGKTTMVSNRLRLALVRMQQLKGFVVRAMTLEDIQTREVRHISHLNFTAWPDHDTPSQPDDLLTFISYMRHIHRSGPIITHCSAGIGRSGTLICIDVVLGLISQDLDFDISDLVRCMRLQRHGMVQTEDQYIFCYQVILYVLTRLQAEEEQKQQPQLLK

**Q.** Which “effect of a mutation on the interaction” value does the source give for “Serine/threonine-protein kinase N2 (Homo sapiens), Q16513 C984S” here?
**A.** Its value is “disrupting interaction”.
